First the molecules themselves.
B1: Fatty acid-binding protein, intestinal, P02693 (parent)
chain: MAFDGTWKVDRNENYEKFMEKMGINVVKRKLGAHDNLKLTITQEGNKFTVKESSNFRNIDVVFELGVDFAYSLADGTELTGTWTMEGNKLVGKFKRVDNGKELIAVREISGNELIQTYTYEGVEAKRIFKKE

This data set covers variants of B1. Particulars: Rattus norvegicus; pH 7.3; 20 °C; GdnHCl; Fluorescence; potassium phosphate 20 mM; structure 1IFB; whole UniProt chain shown.

With G100P, the “denaturant midpoint (higher = more stable)” value (“denaturant midpoint” below) amounted to 0.7 M and the unfolding free energy was determined as 3.5 kcal/mol.
For the variant G122P, the “denaturant midpoint” value amounted to 0.6 M and the unfolding free energy came to 1.2 kcal/mol.
G111P: the “denaturant midpoint” value stood at 1 M and the unfolding free energy amounted to 5 kcal/mol.
Take G45P: the “denaturant midpoint” value turned out to be 0.8 M and the unfolding free energy came out at 3.1 kcal/mol.
Taken in the same sequence, the figures for G66P were 0.9 M and 2.5 kcal/mol.

The record behind these values is FireProtDB (doi:10.1021/bi012042l).
